What was measured:
[1] = molecular target: human Kv1.3 (human) (UniProt P22001); assay: cell-based or functional assay
[2] = molecular target: human Kv1.1 (human) (UniProt Q09470); assay: cell-based or functional assay
Chain of human Kv1.1 (human) (Q09470 whole entry): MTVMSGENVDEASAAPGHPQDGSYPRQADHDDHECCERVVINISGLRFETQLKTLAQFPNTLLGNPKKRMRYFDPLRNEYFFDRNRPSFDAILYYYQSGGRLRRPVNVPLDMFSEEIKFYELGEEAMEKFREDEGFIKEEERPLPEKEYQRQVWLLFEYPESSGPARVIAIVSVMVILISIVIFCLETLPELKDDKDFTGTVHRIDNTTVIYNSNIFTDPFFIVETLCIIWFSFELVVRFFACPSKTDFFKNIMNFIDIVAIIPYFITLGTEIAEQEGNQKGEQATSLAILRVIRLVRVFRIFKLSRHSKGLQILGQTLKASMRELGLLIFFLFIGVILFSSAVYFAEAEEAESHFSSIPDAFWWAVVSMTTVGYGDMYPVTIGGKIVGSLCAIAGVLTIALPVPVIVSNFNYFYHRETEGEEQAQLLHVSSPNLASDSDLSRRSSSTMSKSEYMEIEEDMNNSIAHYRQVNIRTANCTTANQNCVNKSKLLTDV

Chain of human Kv1.3 (human) (P22001 whole entry): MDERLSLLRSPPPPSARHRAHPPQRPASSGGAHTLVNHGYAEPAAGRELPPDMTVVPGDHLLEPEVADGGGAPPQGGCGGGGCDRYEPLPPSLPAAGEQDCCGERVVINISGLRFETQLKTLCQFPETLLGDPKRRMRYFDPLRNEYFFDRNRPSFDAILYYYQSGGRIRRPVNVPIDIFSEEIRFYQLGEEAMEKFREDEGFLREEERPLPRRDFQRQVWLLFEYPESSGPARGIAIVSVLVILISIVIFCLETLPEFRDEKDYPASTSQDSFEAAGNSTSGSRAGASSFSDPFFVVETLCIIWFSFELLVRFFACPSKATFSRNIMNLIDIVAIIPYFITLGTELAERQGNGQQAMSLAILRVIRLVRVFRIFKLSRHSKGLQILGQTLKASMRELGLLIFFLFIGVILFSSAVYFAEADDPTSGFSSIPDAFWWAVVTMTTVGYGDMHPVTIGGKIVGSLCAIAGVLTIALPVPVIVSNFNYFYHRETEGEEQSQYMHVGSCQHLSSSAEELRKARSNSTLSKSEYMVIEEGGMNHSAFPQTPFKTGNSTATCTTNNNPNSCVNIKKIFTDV

**Q.** Which Potency Relative to ShK (WB, IL2) [1] does the source give for “Monovalent Fc/Fc-L10-ShK[2-35] heterodimer (Fc fusion)” here?
**A.** 32.1

**Q.** For 20 kDa-PEG-ShK (peptide), which Kv1.1 (PX) IC50 [2] is on record?
**A.** 1.63 nM

**Q.** And the Kv1.1/Kv1.3 Selectivity Ratio by PX [1]?
**A.** 5.44

**Q.** And the Kv1.3 (PX) IC50 [1]?
**A.** 0.299 nM

**Q.** What about the Potency Relative to ShK (WB, IL2) [1] of the same substance?
**A.** 5.67

**Q.** And the WB (IFNg) IC50 [1]?
**A.** 0.84 nM

**Q.** What about the WB (IL-2) IC50 [1] of the same substance?
**A.** 0.38 nM
